Where two headings read alike, the source gives them in different places.
Experiments:
[1] = tested on: affinity purified β2GPI-dependent antiphospholipid antibody; experiment: Competitive inhibition ELISA: recombinant β2GPI proteins compete for antibody binding to coated full length recombinant β2GPI; set-up: species or system human; settings: for IC50: read-out: 50% (concentration to give 50% inhibition)
Procedure, shortened: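 Wells coated with full-length recombinant β2GPI (10 μg/ml, pH 9.5) and milk-blocked. Serially diluted recombinant β2GPI proteins were co-incubated with a fixed concentration of patient antibody for 1 h at 37 °C. Bound IgG detected with alkaline phosphatase anti-human IgG at OD550; percent inhibition is background-corrected against inhibitor-free wells.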

rabbit anti-β2GPI = experiment: Direct binding ELISA, nickel chelate-coated wells, rabbit antibody; settings: O.D. at 550 nm
Procedure, shortened: (§1)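 His-tagged recombinant β2GPI mutants captured on nickel chelate wells in serial dilution (2 h, room temperature), no anionic phospholipid; GST-6his as negative control. Affinity-purified patient antibodies (11 patients) or rabbit anti-β2GPI detected by alkaline phosphatase anti-IgG, OD 550 nm.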

[2] = tested on: affinity purified β2GPI-dependent antiphospholipid antibody; experiment: Direct binding ELISA, nickel chelate-coated wells charged with recombinant β2GPI proteins (no cardiolipin); set-up: species or system human; settings: O.D. at 550 nm
Procedure, shortened: as §1

B1: -2345: recombinant β2GPI deletion mutant with domains 2-5 (protein)
chain: GRTPRVCPFAGILENGAVRYTTFEYPNTISFSCNTGFYLNGADSAKCTEEGKWSPELPVCAPIICPPPSIPTFATLRVYKPSAGNNSLYRDTAVFECLPQHAMFGNDTITCTTHGNWTKLPECREVKCPFPSRPDNGFVNYPAKPTLYYKDKATFGCHDGYSLDGPEEIECTKLGNWSAMPSCKASCKLPVKKATVVYQGERVKIQEKFKNGMLHGDKVSFFCKNKEKKCSYTEDAQCIDGTIEVPKCFKEHSSLAFWKTDASDVKPCGHHHHHH
- Max (maximum inhibition observed at concentrations tested) ([1]; Ab 6203): 10%
- IC50 ([1]; Ab 6203): > 57 µM
- Max (maximum inhibition observed at concentrations tested) ([1]; Ab 6501): 20%
- IC50 ([1]; Ab 6501): > 57 µM
- Max (maximum inhibition observed at concentrations tested) ([1]; Ab 6509): 20%
- IC50 ([1]; Ab 6509): > 16 µM
- Max (maximum inhibition observed at concentrations tested) ([1]; Ab 6626): 18%
- IC50 ([1]; Ab 6626): > 57 µM
- Max (maximum inhibition observed at concentrations tested) ([1]; Ab 6632): 20%
- IC50 ([1]; Ab 6632): > 57 µM
- Max (maximum inhibition observed at concentrations tested) ([1]; Ab 6641): 20%
- IC50 ([1]; Ab 6641): > 16 µM
- Max (maximum inhibition observed at concentrations tested) ([1]; Ab 6644): 10%
- IC50 ([1]; Ab 6644): > 57 µM
- Max (maximum inhibition observed at concentrations tested) ([1]; Ab 6652): 40%
- IC50 ([1]; Ab 6652): > 16 µM
- Max (maximum inhibition observed at concentrations tested) ([1]; Ab 6701): 10%
- IC50 ([1]; Ab 6701): > 16 µM
- Max (maximum inhibition observed at concentrations tested) ([1]; Ab 7008): 20%
- IC50 ([1]; Ab 7008): > 57 µM
- Max (maximum inhibition observed at concentrations tested) ([1]; Ab 7015): 10%
- IC50 ([1]; Ab 7015): > 57 µM
- Max (maximum inhibition observed at concentrations tested) ([1]; Ab 7101): 5%
- IC50 ([1]; Ab 7101): > 57 µM
- Max (maximum inhibition observed at concentrations tested) ([1]; Ab 7104): 10%
- IC50 ([1]; Ab 7104): > 57 µM
- Maximum O.D. (rabbit anti-β2GPI): 1.873
- Maximum O.D. ([2]; Ab 6203): 0.074
- Maximum O.D. ([2]; Ab 6501): 0.018
- Maximum O.D. ([2]; Ab 6626): 0.008
- Maximum O.D. ([2]; Ab 6632): 0.031
- Maximum O.D. ([2]; Ab 6641): 0.045
- Maximum O.D. ([2]; Ab 6644): 0.041
- Maximum O.D. ([2]; Ab 6652): 0.008
- Maximum O.D. ([2]; Ab 6701): 0.002
- Maximum O.D. ([2]; Ab 7008): 0.019
- Maximum O.D. ([2]; Ab 7015): 0.114
- Maximum O.D. ([2]; Ab 7101): 0.056
